Test results from the supplement of paper PMC9170038.
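Further: bound reporter read as fluorescence of individual clusters on recovered sequencing chips by microscopy, with normalized cluster intensities fitted with a binding model.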

Each sequence was assayed on K4 kissing-loop RNA reporter (assay: apparent KD of K4 kissing-loop reporter; higher = weaker reporter binding). Conditions: Eterna round: R107; input ligand: none.
Description: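 RNA-MaP round R107: designed RNA switches with theophylline, tryptophan, arginine or FMN aptamers are transcribed on-chip within common flanks. They are titrated with a labelled K4 kissing-loop RNA reporter in RNA-MaP buffer (100 mM Tris pH 7.5, 80 mM KCl, 4 mM MgCl2), without ligand or with the indicated ligand. Median apparent KD per design.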
For “GAUACGUCAGUGAUGUUGAUGUAUUACACAGAGGAUAUCGUAAUGACGAGAAGGCUGAGCCAUCUAGAGAUACGUAAGACGUAUC [FMN A SS t5]”, the “apparent KD of K4 kissing-loop reporter” value was 184 nM.
In the case of “UUCAGUGACAUACGAGUGAUGUUCGUAAUACGAGGACCGGUACGGCCGCCACUCGCACGUCGGCAGUUUGUUCAUGCAUCAGACU”, the “apparent KD of K4 kissing-loop reporter” value is reported as 259 nM.
In the case of “UUAUACAACUGAAGGAGCGCCAGUGAUGUUGGCGUGACGACUGCUUCCUUCGCCGAGUCCUGGCAGGUAGGUCGCAGUUGCUGAA [Oratgere]”, the “apparent KD of K4 kissing-loop reporter” value is reported as 113 nM.
In the case of “AAGGUAUCACCAACUUGCAACAAAGGUGAUACCAGCAUCGAAAGAUGCCCUUGGCAGCACCAACUUGCAGUGAUGUUGCAAGUAA [(T)'-(H)'-(T1)-(T2)-(H1)-(H2)_Design10]”, the “apparent KD of K4 kissing-loop reporter” value is reported as 159 nM.
For “AAGGCAGUUCGAGGAUAUCACAUACACUCCUUGAAUCAAGGAGUGAUGUUCCUUGAAGUGUAUGCAUGAGAAGGCGAAUUGCCUU [FMN B SS t5]”, the “apparent KD of K4 kissing-loop reporter” value was 109 nM.
For “GGGUUUGCCGGAAGGAGCGCACUAUGGAGUGAUGUUCCAUGACCGCACAGCUUGCGGUCAGUGCAGGUAGGUCGCCGGUAACGUU [Enatbeve]”, the “apparent KD of K4 kissing-loop reporter” value was 180 nM.
With “UAUACUAGACAAGAGAGAAUUCUCUCAAGAGAGGAUAUCCGAAUUCGGAGAAGGCUCUCUCAGUGAUGUUGGGUAUAGUCUAGAA [AK7 SS FMN A]” the “apparent KD of K4 kissing-loop reporter” value was 323 nM.
In the case of “AAACAUUGGUCUGAUACCAGUUAGACCGAUAAGGUCAAAACUGGAGUGAUGUUCCCAAAUAACCCUUGGCAGCAGACCGAUGAAA [MAT - Same State Theophlline B - Mod of Eli - D10]”, the “apparent KD of K4 kissing-loop reporter” value is reported as 212 nM.
For “UGGACCAAGGAGUGAUGUUCCAUAUGUGAUACCAGCCACGAAAGUGGCCCUUGGCAGCACUGCCAGGACGAAAACGUCCGGUCCU [#SwitchBubble 13 #StaticStem #K4Early]”, the “apparent KD of K4 kissing-loop reporter” value was 503 nM.
With “GUCCCAGUGAUGUUGGUAGGCGAGCGGGAUACCAGCGAAGACUCACGCCCUUGGCAGCCCACAUAUCCCACGUAGGGAUUAGCUC [Same State - Theophylline A (Freestyle 20)]” the “apparent KD of K4 kissing-loop reporter” value was 378 nM.
For “UGACUGGACUGAAGGAGCGAGCGAGACAAAGUCUCGGAAAUUCAGUGAUGUUGAUAUAUAACUCAGGUAGGUCGCAGUCUAGUCU [ArgBS 6 #SwitchBubble #StaticStem]”, the “apparent KD of K4 kissing-loop reporter” value was 459 nM.
With “UAGCGGUGGAGGCCACCGCUAUUCUGAGAAGGAGCGCAGAUGACUGCAGGUAGGUCGCUUAGAGCUUGCAGUGAUGUUGCAAGUU [Araatlaqu]” the “apparent KD of K4 kissing-loop reporter” value was 191 nM.
“GCAUGACGGUAAGGAUAUAGAUAAUCCUUAUAUACGUCGAGUGAUGUUCGAUGUGCCAAGGCACAUCUAGAAGGUACUGUUAGGU [Same State FMN B GF 18]” was tested, and the “apparent KD of K4 kissing-loop reporter” value was 1020 nM.
In the case of “ACGUAUAUCAGAGGAUAUCGUAUUAAUAUUUUAUCUAUCUAUAUAUGCAGUGAUGUUGCAAUAAUUCGAGAAGGCUGAUUUACGA [JR_ExcFMNB_Sub010]”, the “apparent KD of K4 kissing-loop reporter” value is reported as 91.6 nM.
In the case of “UCUGCAAAGUCGGCCGCCACUCCGGGCCCUAUAAAUGGGCGCAGUGAUGUUGCGGCUAGGCCUCUGAGGACCGGGACUUCGUAGA [Somale]”, the “apparent KD of K4 kissing-loop reporter” value is reported as 54.7 nM.
In the case of “UGACUACAUCCUAGUGAUGUUUAGGAUAUGUAGGAUAUGCUGAUAAGCAGAAGGACAGAAGGAAGUGAUGUUCUUAAAGUAGUCU [FmnAX 29 #DoubleAptamer #Double K4 #SwitchBubble #StaticStem]”, the “apparent KD of K4 kissing-loop reporter” value is reported as 1050 nM.

Same assay, conditions: Eterna round: R107; input ligand: theophylline 20 uM
In the case of “CUAGAAGUGAUGUUUCAUAGUAAAUCUGAUACCAGCAUUAAACCCUGCCCUUGGCAGCAGAAUGGGCUGAUAGACUCCUGCAGCU [theeternabot_sameState_KL_Theo_A_36]”, the “apparent KD of K4 kissing-loop reporter” value is reported as 208 nM.
In the case of “AGUGAUAUAUGAGGAUAUGGGUUGGUUAAUGAGUUAGUUUUAGUGUUGUUUGGUUAGUGAUGUUAUUUAGAAGGCGUGAGUGAUG [sffdsmullin]”, the “apparent KD of K4 kissing-loop reporter” value is reported as 95.8 nM.
With “GGAUAACAGGCAGGAUAUGCUUAGUAGUAAGGCCAUAUAUACGUAUAGAGUGAUGUUUUGUACAAGGCAGAAGGGCUAAAUCCAU [FMN B Excl V2 (+4G)]” the “apparent KD of K4 kissing-loop reporter” value was 393 nM.
In the case of “AAACAUUGGUCUGAUACCAGCUUGAUCGGUAAACGAUCUACUGGAGUGAUGUUCCUAAAUAGCCCUUGGCAGCAGACCGAUGAAA [MAT - Same State Theophlline B - Mod of Eli - D6]”, the “apparent KD of K4 kissing-loop reporter” value is reported as 132 nM.
For “CUGUUUUAGUCGGCCGCCACUGCAAGUGAUGUUUGGAGUAUUAUGCCGUUUCUGUCCAUUGAACCCAGGACCGGGACCGGAUCGU [theeternabot_exclusion_KL_Trp_B_8]”, the “apparent KD of K4 kissing-loop reporter” value was 186 nM.
“UGAUACCAGACGGCCGCCACUCCCGUAAGUCAAAGACUUACCAAGAGAAUCGUCCAGUGAUGUUGGAGGACCGGGUCUGGUAUCU [FiskerMod 8 - Jieux - Exclusion - Tryptophan B]” was tested, and the “apparent KD of K4 kissing-loop reporter” value was 732 nM.
In the case of “AACAGCAAUGCGGCCGCCACUUCGAGGUCAGUGAUGUUGACGGGAUUAAAUAAAGAUCCCAAGAGGAGGACCGGGCAGUGCUGUU [whbob_SS_Tryp_B_t26]”, the “apparent KD of K4 kissing-loop reporter” value is reported as 176 nM.
In the case of “CACGAUGAAUUCUCUAGGAGUGAUGUUUUUCGAGGACCGGUACGGCCGCCACUCGGACGACGAGCGUGGUAGCGGCGUGAAGACU [zamullin]”, the “apparent KD of K4 kissing-loop reporter” value is reported as 459 nM.
For “GGUUCCUCAGUGAUGUUGAGGUGACCUCGGCAGGAUAUAGGCAUUACUAGAAGGGCCAAAAGAACCCUGUCCAGCGACACAGGGA [Zalatiat]”, the “apparent KD of K4 kissing-loop reporter” value was 250 nM.
With “GAGAUAGCGACGGCCGCCACUAGUGAUGUUAGUGCGGGUAGAUAGAUACUUGAACAGAAAUGACGUAGGACCGGGUCAGAUAGAG [#02 K4 Tryptophan B Exclusion]” the “apparent KD of K4 kissing-loop reporter” value was 140 nM.
With “CACCGGACGAAAGAUACCAGUUACUAUAUUAGGGUGCCUUGGCUAGUGAUGUUAGAGAGUAACCCUUGGCAGCUUUGGUACUUAU [theeternabot_exclusion_KL_Theo_B_21]” the “apparent KD of K4 kissing-loop reporter” value was 319 nM.
For “CGGUAGUCUAUAGGGUCCAGUGAUGUUGGACAGGAUAUGCUACGCCGCAGAAGGGUCCAACUGGUUGUGAAGUUGGCUACUAGGC [Somaaxe]”, the “apparent KD of K4 kissing-loop reporter” value was 147 nM.
“AGGUUUUGAUUAGGAUAUGCACUGAGGAGGAGAAUAUAGUGAUGUUAUAUAAGAGGAAGGAGAAGAGUAGAAGGGAUUGAGGUUU [SSFMNB.Q]” was tested, and the “apparent KD of K4 kissing-loop reporter” value was 197 nM.
For “AAUAACUAGUAUAUUUGUAAUAAAACAGAUACCAGUGAUAAUAAACACCCUUGGCAGCUGAUCGAGUGAUGUUCGUUUAUUUUAA [JR_SSTheophyA_Sub004]”, the “apparent KD of K4 kissing-loop reporter” value was 130 nM.
In the case of “GCUACUGCCUUAGGAUAUAGUUGAGUGAUGUUCAAGCAUAUGCAUGGGAAAACCAUGCAUAUGUCCCUAGAAGGGAGGCAGUAGC”, the “apparent KD of K4 kissing-loop reporter” value is reported as 630 nM.
For “GCGCGGCUCAGUGAUGUUGAGCCUCGGAAACGAGGACCGGUACGGCCGCCACUCGUCCGCGCAGCUGAGGCAAAAGCCUCGGCAA [Omei KL Tryp A SS B v1]”, the “apparent KD of K4 kissing-loop reporter” value was 334 nM.
“GAUACGUCAGUGAUGUUGAUGUAUUACACAGAGGAUAUCGUAAUGACGAGAAGGCUGAGCCAUCUAGAGAUACGUAAGACGUAUC [FMN A SS t5]” was tested, and the “apparent KD of K4 kissing-loop reporter” value was 188 nM.
For “UUCAGUGACAUACGAGUGAUGUUCGUAAUACGAGGACCGGUACGGCCGCCACUCGCACGUCGGCAGUUUGUUCAUGCAUCAGACU”, the “apparent KD of K4 kissing-loop reporter” value was 255 nM.
For “UUAUACAACUGAAGGAGCGCCAGUGAUGUUGGCGUGACGACUGCUUCCUUCGCCGAGUCCUGGCAGGUAGGUCGCAGUUGCUGAA [Oratgere]”, the “apparent KD of K4 kissing-loop reporter” value was 99 nM.
“AAGGUAUCACCAACUUGCAACAAAGGUGAUACCAGCAUCGAAAGAUGCCCUUGGCAGCACCAACUUGCAGUGAUGUUGCAAGUAA [(T)'-(H)'-(T1)-(T2)-(H1)-(H2)_Design10]” was tested, and the “apparent KD of K4 kissing-loop reporter” value was 186 nM.
In the case of “AAGGCAGUUCGAGGAUAUCACAUACACUCCUUGAAUCAAGGAGUGAUGUUCCUUGAAGUGUAUGCAUGAGAAGGCGAAUUGCCUU [FMN B SS t5]”, the “apparent KD of K4 kissing-loop reporter” value is reported as 103 nM.
For “GGGUUUGCCGGAAGGAGCGCACUAUGGAGUGAUGUUCCAUGACCGCACAGCUUGCGGUCAGUGCAGGUAGGUCGCCGGUAACGUU [Enatbeve]”, the “apparent KD of K4 kissing-loop reporter” value was 201 nM.
In the case of “UAUACUAGACAAGAGAGAAUUCUCUCAAGAGAGGAUAUCCGAAUUCGGAGAAGGCUCUCUCAGUGAUGUUGGGUAUAGUCUAGAA [AK7 SS FMN A]”, the “apparent KD of K4 kissing-loop reporter” value is reported as 389 nM.
With “AAACAUUGGUCUGAUACCAGUUAGACCGAUAAGGUCAAAACUGGAGUGAUGUUCCCAAAUAACCCUUGGCAGCAGACCGAUGAAA [MAT - Same State Theophlline B - Mod of Eli - D10]” the “apparent KD of K4 kissing-loop reporter” value was 185 nM.
